The target in the assay is biotinylated pro-LC3B (residues 1-125) (human) (UniProt Q9GZQ8). The assay can be described thus: SPR; biotinylated LC3B constructs immobilised on NeutrAvidin-coated CM5 chips; ATG4b proteins flowed over, 0.2 nM~20 uM; 1X PBS, 0.5 mM TCEP, 0.05% Tween 20, 20 °C; Biacore 4000; 1:1 binding model. Background: Surface plasmon resonance follows binding to a sensor surface in real time, without labels.

Consider “ATG4b WT (full-length ATG4b) (from UniProt Q9Y4P1 1-393) (enzyme)”, for which the Kd turned out to be 321 nM.

By Kd is commonly meant the free concentration of one partner at which half of the binding sites on the other are occupied at equilibrium, for simple one-to-one binding. A higher Kd goes with lower affinity.
